These results are taken from PMC3709894, “Characterization of the Interaction between the Cohesin Subunits Rad21 and SA1/2” (PLoS ONE, 2013).

In this experiment the target is T1, 6xHis-tagged SA2 (1–1051 aa), baculovirus-expressed (human, UniProt Q8N3U4 1-1051).
T1 construct: source: Sf21 insect cells, baculovirus, in cell extract; not shown: 6xHis, N-terminal, kept
T1 sequence (looked up): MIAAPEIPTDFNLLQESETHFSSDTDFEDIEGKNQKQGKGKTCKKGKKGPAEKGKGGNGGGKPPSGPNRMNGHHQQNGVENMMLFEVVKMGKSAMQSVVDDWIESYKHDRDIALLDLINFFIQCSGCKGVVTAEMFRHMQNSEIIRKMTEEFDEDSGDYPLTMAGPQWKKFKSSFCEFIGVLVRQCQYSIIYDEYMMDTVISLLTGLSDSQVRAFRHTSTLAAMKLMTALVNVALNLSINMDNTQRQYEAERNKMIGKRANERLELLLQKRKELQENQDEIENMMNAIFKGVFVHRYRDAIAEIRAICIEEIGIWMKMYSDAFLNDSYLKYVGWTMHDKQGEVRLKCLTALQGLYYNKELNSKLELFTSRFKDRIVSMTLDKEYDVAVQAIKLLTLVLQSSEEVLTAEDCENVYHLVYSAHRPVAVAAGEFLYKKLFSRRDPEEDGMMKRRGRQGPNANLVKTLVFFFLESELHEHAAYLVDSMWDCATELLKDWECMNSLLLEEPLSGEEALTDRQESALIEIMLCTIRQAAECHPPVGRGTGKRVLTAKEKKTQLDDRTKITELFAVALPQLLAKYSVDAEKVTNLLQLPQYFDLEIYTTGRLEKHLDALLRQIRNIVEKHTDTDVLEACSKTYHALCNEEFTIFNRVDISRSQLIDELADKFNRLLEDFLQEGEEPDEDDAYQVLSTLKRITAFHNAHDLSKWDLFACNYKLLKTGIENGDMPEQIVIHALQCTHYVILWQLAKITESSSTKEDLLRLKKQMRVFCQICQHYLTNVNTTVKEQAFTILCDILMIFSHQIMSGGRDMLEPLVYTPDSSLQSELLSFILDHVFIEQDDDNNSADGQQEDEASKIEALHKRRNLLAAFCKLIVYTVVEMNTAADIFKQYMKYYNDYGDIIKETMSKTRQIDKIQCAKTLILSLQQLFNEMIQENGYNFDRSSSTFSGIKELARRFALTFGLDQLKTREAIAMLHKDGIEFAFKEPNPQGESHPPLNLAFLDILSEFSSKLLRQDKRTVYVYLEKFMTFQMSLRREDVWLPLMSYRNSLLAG
Briefly: SEC; complex co-expressed in Sf21 cells and purified by Ni-NTA and anion exchange, then Superose 6 gel filtration; 25 mM Tris-HCl pH 7.5, 200 mM NaCl, 5% glycerol. Particulars: both partners purified.

B1: Flag-tagged Rad21 (171–450 aa), baculovirus-expressed (domain or fragment, human, UniProt O60216 171-450, looked up)
chain: MREGSAFEDDDMLVSTTTSNLLLESEQSTSNLNEKINHLEYEDQYKDDNFGEGNDGGILDDKLISNNDGGIFDDPPALSEAGVMLPEQPAHDDMDEDDNVSMGGPDSPDSVDPVEPMPTMTDQTTLVPNEEEAFALEPIDITVKETKAKRKRKLIVDSVKELDSKTIRAQLSDYSDIVTTLDLAPPTKKLMMWKETGGVEKLFSLPAQPLWNNRLLKLFTRCLTPLVPEDLRKRRKGGEADNLDEFLKEFENPEVPREDQQQQHQQRDVIDEPIIEEPSR
notes: also called Rad21 middle region; source: Sf21 insect cells, baculovirus, in cell extract
In the case of B1, the binding result was “binds”.
